Test results reported in paper PMC12418098, “A single helicase-binding domain of DnaG couples with hexameric helicase DnaB in Bacillus stearothermophilus”.
“And” between values parts separate entries of the source, which are not always exact repeats. Equal entries are not always repeated.

Key:
[1] = biological target: helicase DnaB hexamer from Bacillus stearothermophilus (Bacillus stearothermophilus) (UniProt Q9X4C9); assay: ITC; DnaG(HBD) (200 μmol/L, needle) titrated into the pre-formed, gel-filtered DnaB6/dT16 complex (10 μmol/L, cell); 25°C; 25 mmol/L Tris pH 8.0, 100 mmol/L NaCl; one-set-of-sites model
[2] = biological target: helicase DnaB hexamer from Bacillus stearothermophilus (Bacillus stearothermophilus) (UniProt Q9X4C9); assay: ITC; DnaB hexamer without ssDNA titrated by DnaG(HBD); 25°C; 25 mmol/L Tris pH 8.0, 100 mmol/L NaCl
[3] = biological target: helicase-binding domain of primase DnaG from Bacillus stearothermophilus (Bacillus stearothermophilus) (UniProt Q9X4D0); assay: ITC; reverse titration: pre-formed DnaB6/dT16 complex (200 μmol/L, needle) titrated into DnaG(HBD) (10 μmol/L, cell); 25°C; 25 mmol/L Tris pH 8.0, 100 mmol/L NaCl; one-set-of-sites model
DnaB helicase = biological target: T1, DnaB helicase (Bacillus stearothermophilus, UniProt Q9X4C9 1-454); assay: gel filtration with SDS-PAGE and SYBR Green II staining; binary complex; EMSA: 25 mM Tris pH 8.0, 100 mM NaCl, 10% glycerol, 1 mM DTT, 5 mM MgCl2, 2 mM ATP, 4 C, native PAGE (6% in Methods, 8% in legend); ITC: 25 mM Tris pH 8.0, 100; details: protein: recombinant; tags: GST tag removed with PreScission (pGEX-6p-1); chain copies: 6; label: none stated; single strand
T1 sequence: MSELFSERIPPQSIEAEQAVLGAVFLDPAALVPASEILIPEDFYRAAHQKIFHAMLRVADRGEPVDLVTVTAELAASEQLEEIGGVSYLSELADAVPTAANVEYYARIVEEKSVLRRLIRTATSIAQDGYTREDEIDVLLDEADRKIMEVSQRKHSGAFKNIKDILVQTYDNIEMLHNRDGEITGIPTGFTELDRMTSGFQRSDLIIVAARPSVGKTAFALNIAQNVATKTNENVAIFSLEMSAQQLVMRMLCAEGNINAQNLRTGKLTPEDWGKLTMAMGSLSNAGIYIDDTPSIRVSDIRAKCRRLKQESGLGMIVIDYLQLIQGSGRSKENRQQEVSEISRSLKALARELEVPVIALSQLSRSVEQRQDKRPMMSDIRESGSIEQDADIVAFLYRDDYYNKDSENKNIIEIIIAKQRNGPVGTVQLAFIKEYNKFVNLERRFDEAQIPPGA

DnaB helicase;DnaG(HBD) [4] = biological target: T2, DnaB helicase;DnaG(HBD) (Bacillus stearothermophilus;Bacillus …, UniProt Q9X4C9;Q9X4D0 1-454;455-597, |); assay: gel filtration with SDS-PAGE and native PAGE; ternary complex, single peak; ITC Kd of Table 1 (about 1 uM) is HBD binding to preformed DnaB6/dT16, a protein-protein contact, so not listed as a value; EMSA: 25 mM Tris pH 8.0, 100 mM NaCl, 10% glycerol, 1 mM DTT, 5 mM MgCl2, 2 mM ATP, 4 C, native PAGE (6% in Methods, 8% in legend); ITC: 25 mM Tris pH 8.0, 100; details: protein: recombinant;recombinant; tags: GST tag removed with PreScission (pGEX-6p-1);GST tag removed with PreScission (pGEX-6p-1); chain copies: 6;1; label: none stated; single strand
T2 sequence 1: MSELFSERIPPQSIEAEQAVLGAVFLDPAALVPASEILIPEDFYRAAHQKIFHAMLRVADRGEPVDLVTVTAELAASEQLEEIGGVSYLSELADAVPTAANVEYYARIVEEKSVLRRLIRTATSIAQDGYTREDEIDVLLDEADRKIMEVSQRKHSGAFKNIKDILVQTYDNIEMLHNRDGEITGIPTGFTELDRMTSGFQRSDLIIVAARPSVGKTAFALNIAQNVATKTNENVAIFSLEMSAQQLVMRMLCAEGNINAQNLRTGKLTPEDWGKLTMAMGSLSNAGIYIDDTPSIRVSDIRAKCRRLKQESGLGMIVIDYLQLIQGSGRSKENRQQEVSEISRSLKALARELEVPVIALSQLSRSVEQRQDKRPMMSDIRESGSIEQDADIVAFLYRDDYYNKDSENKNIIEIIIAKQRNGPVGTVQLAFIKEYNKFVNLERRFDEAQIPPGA
T2 sequence 2: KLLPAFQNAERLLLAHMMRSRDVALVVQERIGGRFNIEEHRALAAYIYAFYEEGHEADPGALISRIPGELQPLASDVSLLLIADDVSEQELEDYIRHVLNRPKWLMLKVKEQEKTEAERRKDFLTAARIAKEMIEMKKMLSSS

DnaB helicase;DnaG(HBD) [5] = biological target: T2, DnaB helicase;DnaG(HBD); assay: EMSA; DnaG(HBD) 1-15 pmol added to DnaB/dT16; 5 mM MgCl2, 2 mM ATP; EMSA: 25 mM Tris pH 8.0, 100 mM NaCl, 10% glycerol, 1 mM DTT, 5 mM MgCl2, 2 mM ATP, 4 C, native PAGE (6% in Methods, 8% in legend); ITC: 25 mM Tris pH 8.0, 100; details: protein: recombinant;recombinant; tags: GST tag removed with PreScission (pGEX-6p-1);GST tag removed with PreScission (pGEX-6p-1); chain copies: 6;1; label: 5'-6-FAM; single strand

How did the Kd [1] turn out when “helicase-binding domain of primase DnaG from Bacillus stearothermophilus (from UniProt Q9X4D0 1-597) (domain or fragment)” was run?
Its Kd is 0.96 µM and 1.13 µM and 1.07 µM.

And the dH [1]?
The dH was -22.8 kcal/mol and -22.7 kcal/mol and -22.2 kcal/mol.

What about the stoichiometry N [1] of the same molecule?
The stoichiometry N was 1.09 and 1.02 and 0.981.

What about the stoichiometry N (DnaG(HBD) per DnaB hexamer) [2] of the same molecule?
Its stoichiometry N (DnaG(HBD) per DnaB hexamer) is 3.

B1: helicase DnaB hexamer from Bacillus stearothermophilus (enzyme)
chain: MSELFSERIPPQSIEAEQAVLGAVFLDPAALVPASEILIPEDFYRAAHQKIFHAMLRVADRGEPVDLVTVTAELAASEQLEEIGGVSYLSELADAVPTAANVEYYARIVEEKSVLRRLIRTATSIAQDGYTREDEIDVLLDEADRKIMEVSQRKHSGAFKNIKDILVQTYDNIEMLHNRDGEITGIPTGFTELDRMTSGFQRSDLIIVAARPSVGKTAFALNIAQNVATKTNENVAIFSLEMSAQQLVMRMLCAEGNINAQNLRTGKLTPEDWGKLTMAMGSLSNAGIYIDDTPSIRVSDIRAKCRRLKQESGLGMIVIDYLQLIQGSGRSKENRQQEVSEISRSLKALARELEVPVIALSQLSRSVEQRQDKRPMMSDIRESGSIEQDADIVAFLYRDDYYNKDSENKNIIEIIIAKQRNGPVGTVQLAFIKEYNKFVNLERRFDEAQIPPGA
Which results are given for B1?
Kd [3]: 1.01 µM and 1.11 µM and 0.89 µM; dH [3]: -11.2 kcal/mol and -9.18 kcal/mol and -9.75 kcal/mol; stoichiometry N [3]: 0.987 and 1.08 and 1.05

Does TTTTTTTTTTTTTTTT (ssDNA) [dT16] bind (DnaB helicase)?
Result: binds

Does TTTTTTTTTTTTTTTT (ssDNA) [dT16] bind (DnaB helicase;DnaG(HBD) [4])?
Result: binds

Does TTTTTTTTTTTTTTTT (ssDNA) [dT16 (6-FAM)] bind (DnaB helicase;DnaG(HBD) [5])?
Result: binds
